From US20210388087A1 (Chugai, published 2021)
Substitutions are numbered along the chain they refer to.

B1: CE115HA000 D101H (antibody, human IgG1, kappa, L234A L235A, N297A, name in Kabat numbering)
heavy: QVQLVESGGGVVQPGRSLRLSCAASGFTFSNAWMHWVRQAPGKGLEWVAQIKAKSNNYATYYAESVKGRFTISRDDSKNSLYLQMNSLKTEDTAVYYCRYVHYGAYYGVHAWGQGTTVTVSSASTKGPSVFPLAPSSKSTSGGTAALGCLVKDYFPEPVTVSWNSGALTSGVHTFPAVLQSSGLYSLSSVVTVPSSSLGTQTYICNVNHKPSNTKVDKKVEPKSCDKTHTCPPCPAPEAAGGPSVFLFPPKPKDTLMISRTPEVTCVVVDVSHEDPEVKFNWYVDGVEVHNAKTKPREEQYASTYRVVSVLTVLHQDWLNGKEYKCKVSNKALPAPIEKTISKAKGQPREPQVYTLPPSRCELTKNQVSLSCAVKGFYPSDIAVEWESNGQPENNYKTTPPVLDSDGSFFLVSKLTVDKSRWQQGNVFSCSVMHEALHNHYTQKSLSLSPDYKDDDDK
chain: EPKSSDKTHTCPPCPAPELLGGPSVFLFPPKPKDTLMISRTPEVTCVVVDVSHEDPEVKFNWYVDGVEVHNAKTKPREEQYNSTYRVVSVLTVLHQDWLNGKEYKCKVSNKALPAPIEKTISKAKGQPREPQVCTLPPSRDELTKNQVSLWCLVKGFYPSDIAVEWESNGQPENNYKTTPPVLDSDGSFFLYSKLTVDKSRWQQGNVFSCSVMHEALHNRYTQKSLSLSP
light: DIVMTQSPLSLPVTPGEPASISCRSSQSLVHSNRNTYLHWYQQKPGQAPRLLIYKVSNRFSGVPDRFSGSGSGTDFTLKISRVEAEDVGVYYCGQGTQVPYTFGQGTKLEIKRTVAAPSVFIFPPSDEQLKSGTASVVCLLNNFYPREAKVQWKVDNALQSGNSQESVTEQDSKDSTYSLSSTLTLSKADYEKHKVYACEVTHQGLSSPVTKSFNRGEC
notes: one-arm antibody
B2: CE115HA000 D101T (antibody, human IgG1, kappa, L234A L235A, N297A, name in Kabat numbering)
heavy: B1 heavy with H110T
chain: B1 chain
light: B1 light
notes: one-arm antibody
B3: CE115HA000 G98A (antibody, human IgG1, kappa, L234A L235A, N297A, name in Kabat numbering)
heavy: B1 heavy with G104A, H110D
chain: B1 chain
light: B1 light
notes: one-arm antibody
B4: CE115HA000 D101V (antibody, human IgG1, kappa, L234A L235A, N297A, name in Kabat numbering)
heavy: B1 heavy with H110V
chain: B1 chain
light: B1 light
notes: one-arm antibody
B5: CE115HA000 G65D (antibody, human IgG1, kappa, L234A L235A, N297A, name in Kabat numbering)
heavy: B1 heavy with G68D, H110D
chain: B1 chain
light: B1 light
notes: one-arm antibody
B6: CE115HA000 G98R (antibody, human IgG1, kappa, L234A L235A, N297A, name in Kabat numbering)
heavy: B1 heavy with G104R, H110D
chain: B1 chain
light: B1 light
notes: one-arm antibody
B7: CE115HA000 D101Y (antibody, human IgG1, kappa, L234A L235A, N297A, name in Kabat numbering)
heavy: B1 heavy with H110Y
chain: B1 chain
light: B1 light
notes: one-arm antibody
B8: CE115HA000 G98P (antibody, human IgG1, kappa, L234A L235A, N297A, name in Kabat numbering)
heavy: B1 heavy with G104P, H110D
chain: B1 chain
light: B1 light
notes: one-arm antibody
B9: CE115HA000 D101K (antibody, human IgG1, kappa, L234A L235A, N297A, name in Kabat numbering)
heavy: B1 heavy with H110K
chain: B1 chain
light: B1 light
notes: one-arm antibody
B10: CE115HA000 G98K (antibody, human IgG1, kappa, L234A L235A, N297A, name in Kabat numbering)
heavy: B1 heavy with G104K, H110D
chain: B1 chain
light: B1 light
notes: one-arm antibody
B11: CE115HA000 D101P (antibody, human IgG1, kappa, L234A L235A, N297A, name in Kabat numbering)
heavy: B1 heavy with H110P
chain: B1 chain
light: B1 light
notes: one-arm antibody
B12: CE115HA000 D101R (antibody, human IgG1, kappa, L234A L235A, N297A, name in Kabat numbering)
heavy: B1 heavy with H110R
chain: B1 chain
light: B1 light
notes: one-arm antibody
B13: CE115HA000 D101L (antibody, human IgG1, kappa, L234A L235A, N297A, name in Kabat numbering)
heavy: B1 heavy with H110L
chain: B1 chain
light: B1 light
notes: one-arm antibody
B14: CE115HA000 D101S (antibody, human IgG1, kappa, L234A L235A, N297A, name in Kabat numbering)
heavy: B1 heavy with H110S
chain: B1 chain
light: B1 light
notes: one-arm antibody
B15: CE115HA000 E61P (antibody, human IgG1, kappa, L234A L235A, N297A, name in Kabat numbering)
heavy: B1 heavy with E64P, H110D
chain: B1 chain
light: B1 light
notes: one-arm antibody
B16: CE115HA000 G98D (antibody, human IgG1, kappa, L234A L235A, N297A, name in Kabat numbering)
heavy: B1 heavy with G104D, H110D
chain: B1 chain
light: B1 light
notes: one-arm antibody
B17: CE115HA000 G98H (antibody, human IgG1, kappa, L234A L235A, N297A, name in Kabat numbering)
heavy: B1 heavy with G104H, H110D
chain: B1 chain
light: B1 light
notes: one-arm antibody
B18: CE115HA000 E61A (antibody, human IgG1, kappa, L234A L235A, N297A, name in Kabat numbering)
heavy: B1 heavy with E64A, H110D
chain: B1 chain
light: B1 light
notes: one-arm antibody
B19: CE115HA000 D101M (antibody, human IgG1, kappa, L234A L235A, N297A, name in Kabat numbering)
heavy: B1 heavy with H110M
chain: B1 chain
light: B1 light
notes: one-arm antibody
B20: CE115HA000 D101I (antibody, human IgG1, kappa, L234A L235A, N297A, name in Kabat numbering)
heavy: B1 heavy with H110I
chain: B1 chain
light: B1 light
notes: one-arm antibody
B21: CE115HA000 E61D (antibody, human IgG1, kappa, L234A L235A, N297A, name in Kabat numbering)
heavy: B1 heavy with E64D, H110D
chain: B1 chain
light: B1 light
notes: one-arm antibody
B22: CE115HA000 G98Y (antibody, human IgG1, kappa, L234A L235A, N297A, name in Kabat numbering)
heavy: B1 heavy with G104Y, H110D
chain: B1 chain
light: B1 light
notes: one-arm antibody
B23: CE115HA000 D101N (antibody, human IgG1, kappa, L234A L235A, N297A, name in Kabat numbering)
heavy: B1 heavy with H110N
chain: B1 chain
light: B1 light
notes: one-arm antibody
B24: CE115HA000 G100bE (antibody, human IgG1, kappa, L234A L235A, N297A, name in Kabat numbering)
heavy: B1 heavy with G108E, H110D
chain: B1 chain
light: B1 light
notes: one-arm antibody
B25: CE115HA000 E61Q (antibody, human IgG1, kappa, L234A L235A, N297A, name in Kabat numbering)
heavy: B1 heavy with E64Q, H110D
chain: B1 chain
light: B1 light
notes: one-arm antibody
B26: CE115HA000 D101Q (antibody, human IgG1, kappa, L234A L235A, N297A, name in Kabat numbering)
heavy: B1 heavy with H110Q
chain: B1 chain
light: B1 light
notes: one-arm antibody
B27: CE115HA000 F29V (antibody, human IgG1, kappa, L234A L235A, N297A, name in Kabat numbering)
heavy: B1 heavy with F29V, H110D
chain: B1 chain
light: B1 light
notes: one-arm antibody
B28: CE115HA000 G98T (antibody, human IgG1, kappa, L234A L235A, N297A, name in Kabat numbering)
heavy: B1 heavy with G104T, H110D
chain: B1 chain
light: B1 light
notes: one-arm antibody
B29: CE115HA000 G98S (antibody, human IgG1, kappa, L234A L235A, N297A, name in Kabat numbering)
heavy: B1 heavy with G104S, H110D
chain: B1 chain
light: B1 light
notes: one-arm antibody
B30: CE115HA000 G65E (antibody, human IgG1, kappa, L234A L235A, N297A, name in Kabat numbering)
heavy: B1 heavy with G68E, H110D
chain: B1 chain
light: B1 light
notes: one-arm antibody
B31: CE115HA000 G100bF (antibody, human IgG1, kappa, L234A L235A, N297A, name in Kabat numbering)
heavy: B1 heavy with G108F, H110D
chain: B1 chain
light: B1 light
notes: one-arm antibody
B32: CE115HA000 G100bD (antibody, human IgG1, kappa, L234A L235A, N297A, name in Kabat numbering)
heavy: B1 heavy with G108D, H110D
chain: B1 chain
light: B1 light
notes: one-arm antibody
B33: CE115HA000 G98Q (antibody, human IgG1, kappa, L234A L235A, N297A, name in Kabat numbering)
heavy: B1 heavy with G104Q, H110D
chain: B1 chain
light: B1 light
notes: one-arm antibody

What follows are binders tested against T1, CD3 epsilon homodimer protein (UniProt P07766 23-126) (assay: SPR, CD3 epsilon homodimer on chip, one-arm antibody as analyte;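 also: surface plasmon resonance at 25 °C with CD3 epsilon homodimer amine-coupled to a CM4 sensor chip, antibody injected as analyte, HBS-EP+ as running buffer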).
T1 construct: also called CD3 (CD3 epsilon)
T1 sequence (P07766 23-126): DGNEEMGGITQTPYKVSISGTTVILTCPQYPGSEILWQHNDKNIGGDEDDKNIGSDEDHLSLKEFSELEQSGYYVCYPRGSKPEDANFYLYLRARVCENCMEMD

| Binder | KD ratio (KD of CE115HA000/KD of altered form) |
| --- | --- |
| B1 | 0.91 |
| B2 | 0.62 |
| B3 | 0.98 |
| B4 | 1.18 |
| B5 | 0.61 |
| B6 | 4.69 |
| B7 | 0.97 |
| B8 | 0.88 |
| B9 | 4.37 |
| B10 | 4.85 |
| B11 | 43.4 |
| B12 | 5.56 |
| B13 | 0.71 |
| B14 | 0.91 |
| B15 | 0.82 |
| B16 | 2.36 |
| B17 | 1.14 |

| Binder | KD ratio (KD of CE115HA000/KD of altered form) |
| --- | --- |
| B18 | 0.94 |
| B19 | 1.94 |
| B20 | 1.73 |
| B21 | 0.9 |
| B22 | 2.75 |
| B23 | 2.28 |
| B24 | 7.29 |
| B25 | 0.65 |
| B26 | 3.55 |
| B27 | 2.94 |
| B28 | 0.93 |
| B29 | 0.98 |
| B30 | 0.61 |
| B31 | 4.37 |
| B32 | 6.25 |
| B33 | 1.04 |
